According to patent US20260183411A1, “TARGETING SORTILIN” (priority 2024, published 2026):

Test: Murine hematotoxicity assay
Assay type: in vivo, mouse
Conditions: 3 mg/kg i.v. QW×4, BALB/c mice
Method: (§1) Murine hematotoxicity experiments were conducted at Charles River Laboratories and the care and use of animals was conducted in accordance with the regulations of the Association for Assessment and Accreditation of Laboratory Animal Care (AAALAC). Wild type BALB/c, female, 7-8 weeks, weighing approximately 18-22 g were randomized and dosed intravenously with control or test articles at a QW×4 schedule. Dosing volume was adjusted based on body weight and was administered at 10 mL/Kg. PDCs were dissolved in 25 mM Histidine 10% sucrose pH 7 and 3 mg/kg was administered. Free MMAE payload was also tested, and similarly dissolved in 25 mM Histidine 10% sucrose pH 7 and administered to the mice at a dose of […] by i.v. injection at a QW×4 schedule. 3 days following each dose, 150 μL of whole blood was collected via submandibular method and placed in K2 EDTA tubes stored on ice. Blood neutrophil counts were performed on the day of collection by IDEXX labs. Body weights were recorded twice a week until study endpoint.
as §1, with “As outlined in the material” for “Murine hematotoxicity experiments were conducted at Charles River Laboratories”, “methods” for “the care and use”, “Example 1, wild” for “animals was conducted in accordance with the regulations of the Association for Assessment and Accreditation of Laboratory Animal Care (AAALAC). Wild”, “PDCs were dissolved in 25 mM Histidine 10% sucrose pH 7 and 3 mg/kg was administered.” left out

Question: Which “blood neutrophil counts compared to vehicle or MMAE treatment” value does the source give for `CC[C@H](C)[C@@H]([C@@H](CC(=O)N1CCC[C@H]1[C@H](OC)[C@@H](C)C(=O)N[C@H](C)[C@@H](O)c1ccccc1)OC)N(C)C(=O)[C@@H](NC(=O)[C@H](C(C)C)N(C)C(=O)OCc1ccc(NC(=O)[C@H](CCCNC(N)=O)NC(=O)[C@@H](NC(=O)CCCC(=O)NCCC(=O)N(C)CC(=O)N(C)CC(=O)N(C)CC(=O)N(C)CC(=O)N[C@@H](C)C(=O)N2CCC[C@H]2C(=O)N[C@@H](CCCNC(=N)N)C(=O)N[C@@H](Cc2c[nH]c3ccccc23)C(=O)N[C@@H](CC(=O)O)C(=O)N[C@@H](C)C(=O)N2CCC[C@H]2C(=O)N[C@@H](CC(C)C)C(=O)N[C@@H](CCCNC(=N)N)C(=O)N[C@@H](CC(=O)O)C(=O)N2CCC[C@H]2C(=O)N[C@@H](C)C(=O)N[C@@H](CC(C)C)C(=O)N[C@@H](CCCNC(=N)N)C(=O)N[C@@H](CCC(N)=O)C(=O)N[C@@H](CC(C)C)C(=O)N[C@@H](CC(C)C)C(=O)O)C(C)C)cc1)C(C)C` [PRGN_WT_PDC] here?
Answer: reduced neutrophil counts
